Reference: article PMC11574045, “A cofactor-induced repressive type of transcription factor condensation can be induced by synthetic peptides to suppress tumorigenesis” (The EMBO Journal, 2024)

B1: GTF2I (protein, UniProt P78347 2-998, looked up)
General transcription factor …: AQVAMSTLPVEDEESSESRMVVTFLMSALESMCKELAKSKAEVACIAVYETDVFVVGTERGRAFVNTRKDFQKDFVKYCVEEEEKAAEMHKMKSTTQANRMSVDAVEIETLRKTVEDYFCFCYGKALGKSTVVPVPYEKMLRDQSAVVVQGLPEGVAFKHPENYDLATLKWILENKAGISFIIKRPFLEPKKHVGGRVMVTDADRSILSPGGSCGPIKVKTEPTEDSGISLEMAAVTVKEESEDPDYYQYNIQAGPSETDDVDEKQPLSKPLQGSHHSSEGNEGTEMEVPAEDSTQHVPSETSEDPEVEVTIEDDDYSPPSKRPKANELPQPPVPEPANAGKRKVREFNFEKWNARITDLRKQVEELFERKYAQAIKAKGPVTIPYPLFQSHVEDLYVEGLPEGIPFRRPSTYGIPRLERILLAKERIRFVIKKHELLNSTREDLQLDKPASGVKEEWYARITKLRKMVDQLFCKKFAEALGSTEAKAVPYQKFEAHPNDLYVEGLPENIPFRSPSWYGIPRLEKIIQVGNRIKFVIKRPELLTHSTTEVTQPRTNTPVKEDWNVRITKLRKQVEEIFNLKFAQALGLTEAVKVPYPVFESNPEFLYVEGLPEGIPFRSPTWFGIPRLERIVRGSNKIKFVVKKPELVISYLPPGMASKINTKALQSPKRPRSPGSNSKVPEIEVTVEGPNNNNPQTSAVRTPTQTNGSNVPFKPRGREFSFEAWNAKITDLKQKVENLFNEKCGEALGLKQAVKVPFALFESFPEDFYVEGLPEGVPFRRPSTFGIPRLEKILRNKAKIKFIIKKPEMFETAIKESTSSKSPPRKINSSPNVNTTASGVEDLNIIQVTIPDDDNERLSKVEKARQLREQVNDLFSRKFGEAIGMGFPVKVPYRKITINPGCVVVDGMPPGVSFKAPSYLEISSMRRILDSAEFIKFTVIRPFPGLVINNQLVDQSESEGPVIQESAEPSQLEVPATEEIKETDGSSQIKQEPDPTW
B2: GTF2IRD1 (protein, UniProt Q9UHL9 1-959, looked up)
General transcription factor …: MALLGKRCDVPTNGCGPDRWNSAFTRKDEIITSLVSALDSMCSALSKLNAEVACVAVHDESAFVVGTEKGRMFLNARKELQSDFLRFCRGPPWKDPEAEHPKKVQRGEGGGRSLPRSSLEHGSDVYLLRKMVEEVFDVLYSEALGRASVVPLPYERLLREPGLLAVQGLPEGLAFRRPAEYDPKALMAILEHSHRIRFKLKRPLEDGGRDSKALVELNGVSLIPKGSRDCGLHGQAPKVPPQDLPPTATSSSMASFLYSTALPNHAIRELKQEAPSCPLAPSDLGLSRPMPEPKATGAQDFSDCCGQKPTGPGGPLIQNVHASKRILFSIVHDKSEKWDAFIKETEDINTLRECVQILFNSRYAEALGLDHMVPVPYRKIACDPEAVEIVGIPDKIPFKRPCTYGVPKLKRILEERHSIHFIIKRMFDERIFTGNKFTKDTTKLEPASPPEDTSAEVSRATVLDLAGNARSDKGSMSEDCGPGTSGELGGLRPIKIEPEDLDIIQVTVPDPSPTSEEMTDSMPGHLPSEDSGYGMEMLTDKGLSEDARPEERPVEDSHGDVIRPLRKQVELLFNTRYAKAIGISEPVKVPYSKFLMHPEELFVVGLPEGISLRRPNCFGIAKLRKILEASNSIQFVIKRPELLTEGVKEPIMDSQGTASSLGFSPPALPPERDSGDPLVDESLKRQGFQENYDARLSRIDIANTLREQVQDLFNKKYGEALGIKYPVQVPYKRIKSNPGSVIIEGLPPGIPFRKPCTFGSQNLERILAVADKIKFTVTRPFQGLIPKPDEDDANRLGEKVILREQVKELFNEKYGEALGLNRPVLVPYKLIRDSPDAVEVTGLPDDIPFRNPNTYDIHRLEKILKAREHVRMVIINQLQPFAEICNDAKVPAKDSSIPKRKRKRVSEGNSVSSSSSSSSSSSSNPDSVASANQISLVQWPMYMVDYAGLNVQLPGPLNY
B3: HAND1 (protein, UniProt O96004 1-215, looked up)
Heart- and neural crest …: MNLVGSYAHHHHHHHPHPAHPMLHEPFLFGPASRCHQERPYFQSWLLSPADAAPDFPAGGPPPAAAAAATAYGPDARPGQSPGRLEALGGRLGRRKGSGPKKERRRTESINSAFAELRECIPNVPADTKLSKIKTLRLATSYIAYLMDVLAKDAQSGDPEAFKAELKKADGGRESKRKRELQQHEGFPPALGPVEKRIKGRTGWPQQVWALELNQ
B4: HDAC8 (protein, UniProt Q9BY41 1-377, looked up)
Histone deacetylase 8: MEEPEEPADSGQSLVPVYIYSPEYVSMCDSLAKIPKRASMVHSLIEAYALHKQMRIVKPKVASMEEMATFHTDAYLQHLQKVSQEGDDDHPDSIEYGLGYDCPATEGIFDYAAAIGGATITAAQCLIDGMCKVAINWSGGWHHAKKDEASGFCYLNDAVLGILRLRRKFERILYVDLDLHHGDGVEDAFSFTSKVMTVSLHKFSPGFFPGTGDVSDVGLGKGRYYSVNVPIQDGIQDEKYYQICESVLKEVYQAFNPKAVVLQLGADTIAGDPMCSFNMTPVGIGKCLKYILQWQLATLILGGGGYNLANTARCWTYLTGVILGKTLSSEIPDHEFFTAYGPDYVLEITPSCRPDRNEPHRIQQILNYIKGNLKHVV
B5: GTF2A1L (protein, UniProt Q9UNN4 1-478, looked up)
TFIIA-alpha and beta-like …: MACLNPVPKLYRSVIEDVIEGVRNLFAEEGIEEQVLKDLKQLWETKVLQSKATEDFFRNSIQSPLFTLQLPHSLHQTLQSSTASLVIPAGRTLPSFTTAELGTSNSSANFTFPGYPIHVPAGVTLQTVSGHLYKVNVPIMVTETSGRAGILQHPIQQVFQQLGQPSVIQTSVPQLNPWSLQATTEKSQRIETVLQQPAILPSGPVDRKHLENATSDILVSPGNEHKIVPEALLCHQESSHYISLPGVVFSPQVSQTNSNVESVLSGSASMAQNLHDESLSTSPHGALHQHVTDIQLHILKNRMYGCDSVKQPRNIEEPSNIPVSEKDSNSQVDLSIRVTDDDIGEIIQVDGSGDTSSNEEIGSTRDADENEFLGNIDGGDLKVPEEEADSISNEDSATNSSDNEDPQVNIVEEDPLNSGDDVSEQDVPDLFDTDNVIVCQYDKIHRSKNKWKFYLKDGVMCFGGRDYVFAKAIGDAEW
B6: HES1 (protein, UniProt Q14469 1-280, looked up)
Transcription factor HES-1: MPADIMEKNSSSPVAATPASVNTTPDKPKTASEHRKSSKPIMEKRRRARINESLSQLKTLILDALKKDSSRHSKLEKADILEMTVKHLRNLQRAQMTAALSTDPSVLGKYRAGFSECMNEVTRFLSTCEGVNTEVRTRLLGHLANCMTQINAMTYPGQPHPALQAPPPPPPGPGGPQHAPFAPPPPLVPIPGGAAPPPGGAPCKLGSQAGEAAKVFGGFQVVPAPDGQFAFLIPNGAFAHSGPVIPVYTSNSGTSVGPNAVSPSSGPSLTADSMWRPWRN
B7: HELT (protein, UniProt A6NFD8 1-242, looked up)
Hairy and enhancer of …: MSDKLKERKRTPVSHKVIEKRRRDRINRCLNELGKTVPMALAKQSSGKLEKAEILEMTVQYLRALHSADFPRGREKAELLAEFANYFHYGYHECMKNLVHYLTTVERMETKDTKYARILAFLQSKARLGAEPAFPPLGSLPEPDFSYQLHPAGPEFAGHSPGEAAVFPQGSGAGPFPWPPGAARSPALPYLPSAPVPLASPAQQHSPFLTPVQGLDRHYLNLIGHAHPNALNLHTPQHPPVL
B8: HDAC11 (protein, UniProt Q96DB2 1-347, looked up)
Histone deacetylase 11: MLHTTQLYQHVPETRWPIVYSPRYNITFMGLEKLHPFDAGKWGKVINFLKEEKLLSDSMLVEAREASEEDLLVVHTRRYLNELKWSFAVATITEIPPVIFLPNFLVQRKVLRPLRTQTGGTIMAGKLAVERGWAINVGGGFHHCSSDRGGGFCAYADITLAIKFLFERVEGISRATIIDLDAHQGNGHERDFMDDKRVYIMDVYNRHIYPGDRFAKQAIRRKVELEWGTEDDEYLDKVERNIKKSLQEHLPDVVVYNAGTDILEGDRLGGLSISPAGIVKRDELVFRMVRGRRVPILMVTSGGYQKRTARIIADSILNLFGLGLIGPESPSVSAQNSDTPLLPPAVP
B9: HELIOS (protein, UniProt Q9UKS7 1-526, looked up)
Zinc finger protein Helios: METEAIDGYITCDNELSPEREHSNMAIDLTSSTPNGQHASPSHMTSTNSVKLEMQSDEECDRKPLSREDEIRGHDEGSSLEEPLIESSEVADNRKVQELQGEGGIRLPNGKLKCDVCGMVCIGPNVLMVHKRSHTGERPFHCNQCGASFTQKGNLLRHIKLHSGEKPFKCPFCSYACRRRDALTGHLRTHSVGKPHKCNYCGRSYKQRSSLEEHKERCHNYLQNVSMEAAGQVMSHHVPPMEDCKEQEPIMDNNISLVPFERPAVIEKLTGNMGKRKSSTPQKFVGEKLMRFSYPDIHFDMNLTYEKEAELMQSHMMDQAINNAITYLGAEALHPLMQHPPSTIAEVAPVISSAYSQVYHPNRIERPISRETADSHENNMDGPISLIRPKSRPQEREASPSNSCLDSTDSESSHDDHQSYQGHPALNPKRKQSPAYMKEDVKALDTTKAPKGSLKDIYKVFNGEGEQIRAFKCEHCRVLFLDHVMYTIHMGCHGYRDPLECNICGYRSQDRYEFSSHIVRGEHTFH
B10: GTF2A1 (protein, UniProt P52655 2-376, looked up)
Transcription initiation …: ANSANTNTVPKLYRSVIEDVINDVRDIFLDDGVDEQVLMELKTLWENKLMQSRAVDGFHSEEQQLLLQVQQQHQPQQQQHHHHHHHQQAQPQQTVPQQAQTQQVLIPASQQATAPQVIVPDSKLIQHMNASNMSAAATAATLALPAGVTPVQQILTNSGQLLQVVRAANGAQYIFQPQQSVVLQQQVIPQMQPGGVQAPVIQQVLAPLPGGISPQTGVIIQPQQILFTGNKTQVIPTTVAAPTPAQAQITATGQQQPQAQPAQTQAPLVLQVDGTGDTSSEEDEDEEEDYDDDEEEDKEKDGAEDGQVEEEPLNSEDDVSDEEGQELFDTENVVVCQYDKIHRSKNKWKFHLKDGIMNLNGRDYIFSKAIGDAEW
B11: APBB1 (protein, UniProt O00213 1-710, looked up)
Amyloid beta precursor …: MSVPSSLSQSAINANSHGGPALSLPLPLHAAHNQLLNAKLQATAVGPKDLRSAMGEGGGPEPGPANAKWLKEGQNQLRRAATAHRDQNRNVTLTLAEEASQEPEMAPLGPKGLIHLYSELELSAHNAANRGLRGPGLIISTQEQGPDEGEEKAAGEAEEEEEDDDDEEEEEDLSSPPGLPEPLESVEAPPRPQALTDGPREHSKSASLLFGMRNSAASDEDSSWATLSQGSPSYGSPEDTDSFWNPNAFETDSDLPAGWMRVQDTSGTYYWHIPTGTTQWEPPGRASPSQGSSPQEESQLTWTGFAHGEGFEDGEFWKDEPSDEAPMELGLKEPEEGTLTFPAQSLSPEPLPQEEEKLPPRNTNPGIKCFAVRSLGWVEMTEEELAPGRSSVAVNNCIRQLSYHKNNLHDPMSGGWGEGKDLLLQLEDETLKLVEPQSQALLHAQPIISIRVWGVGRDSGRERDFAYVARDKLTQMLKCHVFRCEAPAKNIATSLHEICSKIMAERRNARCLVNGLSLDHSKLVDVPFQVEFPAPKNELVQKFQVYYLGNVPVAKPVGVDVINGALESVLSSSSREQWTPSHVSVAPATLTILHQQTEAVLGECRVRFLSFLAVGRDVHTFAFIMAAGPASFCCHMFWCEPNAASLSEAVQAACMLRYQKCLDARSQASTSCLPAPPAESVARRVGWTVRRGVQSLWGSLKPKRLGAHTP

System: HEK293FT cells transfected with TF library
Test: Screening of TF condensates based on fluorescent puncta
Format: cell-based
Details: Figure 1B numerical data; TF library screen, one value per transcriptional factor
Procedure, shortened: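 Condensate formation is scored as Alexa 488-labelled puncta after Flag- or GAL4-tag immunostaining of fixed HEK293FT cells expressing individual TFs, with a 12 h glucose-free or glucose-containing culture preceding fixation.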

Molecule	Z score of condensed fraction
B1	0.02684
B2	-0.874
B3	-0.3888
B4	0.9737
B5	3.206
B6	-0.8248
B7	-0.4669
B8	0.2732
B9	-0.5188
B10	0.06864
B11	2.844
